Laboratory results reported in patent publication US10167314 (NORTHWESTERN UNIVERSITY, dated 2019).
Ends that are not written are not given here.

Biological target: N-methyl-D-aspartate (NMDA) receptor (rat)
Test: cell-based or functional assay

B1: GLYX-13 (L-threonyl-L-prolyl-L-prolyl-L-threonine amide) (peptide)
peptide: TPPT-NH2
For B1, the “intrinsic activity relative to D-serine, pharmacologically isolated NMDA receptor current in the hippocampal slice assay” value was 23%.
